Measurements from article PMC3627599.

T1: MAZ (Homo sapiens (pGEX-hMAZ), UniProt P56270 1-477)
T1 sequence: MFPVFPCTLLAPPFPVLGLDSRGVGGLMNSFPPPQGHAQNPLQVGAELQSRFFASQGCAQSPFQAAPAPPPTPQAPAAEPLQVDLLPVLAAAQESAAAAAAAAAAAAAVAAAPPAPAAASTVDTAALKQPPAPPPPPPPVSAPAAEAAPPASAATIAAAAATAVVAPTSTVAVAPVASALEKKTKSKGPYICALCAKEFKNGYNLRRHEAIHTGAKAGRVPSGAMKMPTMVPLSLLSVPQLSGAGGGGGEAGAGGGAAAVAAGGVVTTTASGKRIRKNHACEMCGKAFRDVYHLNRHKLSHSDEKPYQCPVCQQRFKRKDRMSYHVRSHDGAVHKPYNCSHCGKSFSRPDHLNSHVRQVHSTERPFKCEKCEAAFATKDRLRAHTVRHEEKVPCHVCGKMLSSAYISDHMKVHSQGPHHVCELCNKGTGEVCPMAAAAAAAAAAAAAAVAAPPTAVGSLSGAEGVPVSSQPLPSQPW


Assays:
MAZ [1] = molecular target: T1, MAZ; assay: double-filter binding
MAZ [2] = molecular target: T1, MAZ; assay: competition

Binder | Kd (MAZ [1]) | binding result (MAZ [2])
GCGGTGTGGGAAGAGGGAAGAGGGGGAGGCAG (structured_DNA) [32R-3n] | 320 ± 2 nM | –
GCGGTGTGGGAAGAGGGAAGAGGGGGAGGCAG (XNA, AMANY inserted after G10 and after A21; 2 LNA at 3' end) [3044] | – | binds
